Substitutions are numbered along the chain they refer to. Names and notes keep the numbering of the source.
B1: H115V: PYR1 mutant (protein, UniProt O49686 1-191, looked up, variant H115V)
Abscisic acid receptor PYR1: MPSELTPEERSELKNSIAEFHTYQLDPGSCSSLHAQRIHAPPELVWSIVRRFDKPQTYKHFIKSCSVEQNFEMRVGCTRDVIVISGLPANTSTERLDILDDERRVTGFSIIGGEVRLTNYKSVTTVHRFEKENRIWTVVLESYVVDMPEGNSEDDTRMFADTVVKLNLQKLATVAEAMARNSGDGSGSQVT
B2: L117N: PYR1 mutant (protein, UniProt O49686 1-191, looked up, variant L117N)
Abscisic acid receptor PYR1: B1 Abscisic acid receptor PYR1 with V115H, L117N
B3: R116S: PYR1 mutant (protein, UniProt O49686 1-191, looked up, variant R116S)
Abscisic acid receptor PYR1: B1 Abscisic acid receptor PYR1 with V115H, R116S
B4: H115F: PYR1 mutant (protein, UniProt O49686 1-191, looked up, variant H115F)
Abscisic acid receptor PYR1: B1 Abscisic acid receptor PYR1 with V115F
B5: R116F: PYR1 mutant (protein, UniProt O49686 1-191, looked up, variant R116F)
Abscisic acid receptor PYR1: B1 Abscisic acid receptor PYR1 with V115H, R116F
B6: L117E: PYR1 mutant (protein, UniProt O49686 1-191, looked up, variant L117E)
Abscisic acid receptor PYR1: B1 Abscisic acid receptor PYR1 with V115H, L117E
B7: P148L: PYR1 mutant (protein, UniProt O49686 1-191, looked up, variant P148L)
Abscisic acid receptor PYR1: B1 Abscisic acid receptor PYR1 with V115H, P148L
B8: H115W: PYR1 mutant (protein, UniProt O49686 1-191, looked up, variant H115W)
Abscisic acid receptor PYR1: B1 Abscisic acid receptor PYR1 with V115W
B9: L117G: PYR1 mutant (protein, UniProt O49686 1-191, looked up, variant L117G)
Abscisic acid receptor PYR1: B1 Abscisic acid receptor PYR1 with V115H, L117G
B10: L117T: PYR1 mutant (protein, UniProt O49686 1-191, looked up, variant L117T)
Abscisic acid receptor PYR1: B1 Abscisic acid receptor PYR1 with V115H, L117T
B11: R116W: PYR1 mutant (protein, UniProt O49686 1-191, looked up, variant R116W)
Abscisic acid receptor PYR1: B1 Abscisic acid receptor PYR1 with V115H, R116W
B12: L117Q: PYR1 mutant (protein, UniProt O49686 1-191, looked up, variant L117Q)
Abscisic acid receptor PYR1: B1 Abscisic acid receptor PYR1 with V115H, L117Q
B13: R116H: PYR1 mutant (protein, UniProt O49686 1-191, looked up, variant R116H)
Abscisic acid receptor PYR1: B1 Abscisic acid receptor PYR1 with V115H, R116H
B14: L117D: PYR1 mutant (protein, UniProt O49686 1-191, looked up, variant L117D)
Abscisic acid receptor PYR1: B1 Abscisic acid receptor PYR1 with V115H, L117D
B15: H115Y: PYR1 mutant (protein, UniProt O49686 1-191, looked up, variant H115Y)
Abscisic acid receptor PYR1: B1 Abscisic acid receptor PYR1 with V115Y
B16: R116I: PYR1 mutant (protein, UniProt O49686 1-191, looked up, variant R116I)
Abscisic acid receptor PYR1: B1 Abscisic acid receptor PYR1 with V115H, R116I
B17: L117P: PYR1 mutant (protein, UniProt O49686 1-191, looked up, variant L117P)
Abscisic acid receptor PYR1: B1 Abscisic acid receptor PYR1 with V115H, L117P
B18: L117Y: PYR1 mutant (protein, UniProt O49686 1-191, looked up, variant L117Y)
Abscisic acid receptor PYR1: B1 Abscisic acid receptor PYR1 with V115H, L117Y
B19: R116E: PYR1 mutant (protein, UniProt O49686 1-191, looked up, variant R116E)
Abscisic acid receptor PYR1: B1 Abscisic acid receptor PYR1 with V115H, R116E
B20: L117W: PYR1 mutant (protein, UniProt O49686 1-191, looked up, variant L117W)
Abscisic acid receptor PYR1: B1 Abscisic acid receptor PYR1 with V115H, L117W
B21: L117K: PYR1 mutant (protein, UniProt O49686 1-191, looked up, variant L117K)
Abscisic acid receptor PYR1: B1 Abscisic acid receptor PYR1 with V115H, L117K
B22: L117H: PYR1 mutant (protein, UniProt O49686 1-191, looked up, variant L117H)
Abscisic acid receptor PYR1: B1 Abscisic acid receptor PYR1 with V115H, L117H
B23: R116G: PYR1 mutant (protein, UniProt O49686 1-191, looked up, variant R116G)
Abscisic acid receptor PYR1: B1 Abscisic acid receptor PYR1 with V115H, R116G
B24: H115D: PYR1 mutant (protein, UniProt O49686 1-191, looked up, variant H115D)
Abscisic acid receptor PYR1: B1 Abscisic acid receptor PYR1 with V115D
B25: R116A: PYR1 mutant (protein, UniProt O49686 1-191, looked up, variant R116A)
Abscisic acid receptor PYR1: B1 Abscisic acid receptor PYR1 with V115H, R116A
B26: R116C: PYR1 mutant (protein, UniProt O49686 1-191, looked up, variant R116C)
Abscisic acid receptor PYR1: B1 Abscisic acid receptor PYR1 with V115H, R116C
B27: R116T: PYR1 mutant (protein, UniProt O49686 1-191, looked up, variant R116T)
Abscisic acid receptor PYR1: B1 Abscisic acid receptor PYR1 with V115H, R116T
B28: H115I: PYR1 mutant (protein, UniProt O49686 1-191, looked up, variant H115I)
Abscisic acid receptor PYR1: B1 Abscisic acid receptor PYR1 with V115I
B29: H115K: PYR1 mutant (protein, UniProt O49686 1-191, looked up, variant H115K)
Abscisic acid receptor PYR1: B1 Abscisic acid receptor PYR1 with V115K
B30: L117V: PYR1 mutant (protein, UniProt O49686 1-191, looked up, variant L117V)
Abscisic acid receptor PYR1: B1 Abscisic acid receptor PYR1 with V115H, L117V
B31: R116P: PYR1 mutant (protein, UniProt O49686 1-191, looked up, variant R116P)
Abscisic acid receptor PYR1: B1 Abscisic acid receptor PYR1 with V115H, R116P
B32: L117S: PYR1 mutant (protein, UniProt O49686 1-191, looked up, variant L117S)
Abscisic acid receptor PYR1: B1 Abscisic acid receptor PYR1 with V115H, L117S
B33: L117A: PYR1 mutant (protein, UniProt O49686 1-191, looked up, variant L117A)
Abscisic acid receptor PYR1: B1 Abscisic acid receptor PYR1 with V115H, L117A
B34: R116Y: PYR1 mutant (protein, UniProt O49686 1-191, looked up, variant R116Y)
Abscisic acid receptor PYR1: B1 Abscisic acid receptor PYR1 with V115H, R116Y
B35: P148N: PYR1 mutant (protein, UniProt O49686 1-191, looked up, variant P148N)
Abscisic acid receptor PYR1: B1 Abscisic acid receptor PYR1 with V115H, P148N
B36: R116D: PYR1 mutant (protein, UniProt O49686 1-191, looked up, variant R116D)
Abscisic acid receptor PYR1: B1 Abscisic acid receptor PYR1 with V115H, R116D
B37: L117R: PYR1 mutant (protein, UniProt O49686 1-191, looked up, variant L117R)
Abscisic acid receptor PYR1: B1 Abscisic acid receptor PYR1 with V115H, L117R
B38: R116V: PYR1 mutant (protein, UniProt O49686 1-191, looked up, variant R116V)
Abscisic acid receptor PYR1: B1 Abscisic acid receptor PYR1 with V115H, R116V
B39: H115G: PYR1 mutant (protein, UniProt O49686 1-191, looked up, variant H115G)
Abscisic acid receptor PYR1: B1 Abscisic acid receptor PYR1 with V115G
B40: H115C: PYR1 mutant (protein, UniProt O49686 1-191, looked up, variant H115C)
Abscisic acid receptor PYR1: B1 Abscisic acid receptor PYR1 with V115C
B41: P148M: PYR1 mutant (protein, UniProt O49686 1-191, looked up, variant P148M)
Abscisic acid receptor PYR1: B1 Abscisic acid receptor PYR1 with V115H, P148M
B42: H115E: PYR1 mutant (protein, UniProt O49686 1-191, looked up, variant H115E)
Abscisic acid receptor PYR1: B1 Abscisic acid receptor PYR1 with V115E

Tested on: HAB1
Experiment: Yeast two hybrid of pBD-PYR1 site saturation mutants with pACT-HAB1 on 10 μM ABA, β-galactosidase staining
Type: cell-based, Arabidopsis
Set-up: key: x: Mutations in PYR1 that disrupt ABA-induced binding to PYR1 to HAB1
Settings: S. cerevisiae Y190, 10 μM ABA; dead = lack of visible staining in comparison to wild type control
How it was run: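 S. cerevisiae Y190 co-expressing GAL4-DNA-binding-domain–PYR1 mutants and GAL4-activation-domain–HAB1 were spotted on SD (-Leu, -Trp) agar with 10 μM (+)-ABA for 2 days at 30° C. Colonies were chloroform-lysed and stained for β-galactosidase. Mutants lacking visible staining relative to wild type were scored as non-binding.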

Row | Molecule | Mutations in PYR1 that disrupt ABA-induced binding to PYR1 to HAB1
1 | B1 | x
2 | B2 | x
3 | B3 | x
4 | B4 | x
5 | B5 | x
6 | B6 | x
7 | B7 | x
8 | B8 | x
9 | B9 | x
10 | B10 | x
11 | B11 | x
12 | B12 | x
13 | B13 | x
14 | B14 | x
15 | B15 | x
16 | B16 | x
17 | B17 | x
18 | B18 | x
19 | B19 | x
20 | B20 | x
21 | B21 | x

Row | Molecule | Mutations in PYR1 that disrupt ABA-induced binding to PYR1 to HAB1
22 | B22 | x
23 | B23 | x
24 | B24 | x
25 | B25 | x
26 | B26 | x
27 | B27 | x
28 | B28 | x
29 | B29 | x
30 | B30 | x
31 | B31 | x
32 | B32 | x
33 | B33 | x
34 | B34 | x
35 | B35 | x
36 | B36 | x
37 | B37 | x
38 | B38 | x
39 | B39 | x
40 | B40 | x
41 | B41 | x
42 | B42 | x
